This is an account of results in patent US20230113734A1 (CELLTRION, published 2023).

Substitutions are numbered along the chain they refer to.

One experiment deals with T1, HCoV-HKU1 S1 (HCoV-HKU1, UniProt Q5MQD0 13-760).
T1 construct: domain: S1
T1 sequence: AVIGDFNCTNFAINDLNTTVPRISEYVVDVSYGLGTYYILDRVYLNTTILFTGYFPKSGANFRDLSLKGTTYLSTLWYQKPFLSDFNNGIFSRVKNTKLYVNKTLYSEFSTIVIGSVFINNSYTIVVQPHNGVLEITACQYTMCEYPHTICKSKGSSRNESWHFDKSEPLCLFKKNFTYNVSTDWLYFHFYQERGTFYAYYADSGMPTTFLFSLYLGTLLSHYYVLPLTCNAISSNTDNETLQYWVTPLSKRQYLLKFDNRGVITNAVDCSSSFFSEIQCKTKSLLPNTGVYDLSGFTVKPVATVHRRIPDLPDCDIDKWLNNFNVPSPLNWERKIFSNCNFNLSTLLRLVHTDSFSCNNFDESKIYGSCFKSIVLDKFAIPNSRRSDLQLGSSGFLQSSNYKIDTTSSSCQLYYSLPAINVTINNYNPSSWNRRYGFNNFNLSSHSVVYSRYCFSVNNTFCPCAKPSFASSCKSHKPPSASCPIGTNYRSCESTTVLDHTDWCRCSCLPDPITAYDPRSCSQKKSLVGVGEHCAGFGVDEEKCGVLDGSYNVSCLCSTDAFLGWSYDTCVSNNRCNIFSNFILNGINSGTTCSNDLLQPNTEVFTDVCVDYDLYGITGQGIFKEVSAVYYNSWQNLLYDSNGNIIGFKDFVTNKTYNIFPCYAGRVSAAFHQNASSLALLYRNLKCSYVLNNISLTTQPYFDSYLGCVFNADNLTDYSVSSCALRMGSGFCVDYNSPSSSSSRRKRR
Description: Octet binding specificity analysis (FIG. 10).

For experiment [1], the target named is SARS-CoV-2 S protein (spike protein) (SARS-CoV-2, UniProt P0DTC2 16-1213). As to the kind of experiment: ELISA, S proteins on plate.

B1: No. 139 antibody (full IgG) (antibody, V domains shown)
VH: QITLKESGPTLVKPTQTLTLTCSFSGFSLSTSGVGVGWIRQPPGKALEWLALIDWDDNKYHTTSLKTRLTISKDTSKNQVVLTMTNMDPVDTATYYCARIPGFLRYRNRYYYYGMDVWGQGTTVTVSS
VL: ELVLTQPPSVSAAPGQKVTISCSGSSSNIGNNYVSWYQQLPGTAPKLLIYDNNKRPSGIPDRFSGSKSGTSATLGITGLQTGDEADYYCGTWDSSLSAGVFGGGTELTVL
notes: also called CT-P59
As to B1, the binding result in the experiment with HCoV-HKU1 S1 is on record as “no binding”.

B2: No. 266 scFv-Fc antibody fragment (scFv, V domains shown)
VH: EVQLVESGGGLVQPGGSLRLSCAASGFTVSSNYMTWVRQAPGKGLEWVSVIYSGGSTFYADSVKGRFTISRDNSKNTLYLQMNSLRAEDTAVYYCARDLVVYGMDVWGQGTTVTVSS
VL: ELELTQPPSVSVAPGKTARITCGGNNIGSKSVHWYQQKPGQAPVLVIYYDSDRPSGIPERFSGSNSGNTATLTISRVEAGDEADYYCQVRDSSSDHPVFGGGTKVTVL
On to B2, for which the Binding ability in experiment [1] was 0.8 relative to positive control antibody.

B3: No. 268 scFv-Fc antibody fragment (scFv, V domains shown)
VH: B2 VH with E1Q, E6Q, L11V, G16R
VL: ELELTQPPSVSGAPGQRVTISCTGSDSNIGAGYDVHWYQQLPGTAPKLLIYNNNNRPSGVPDRFSGSKSGTSASLAITGLQAEDEADYFCQSSDSGLTGWVFGGGTKLTVL
For the molecule B3, the Binding ability in experiment [1] was 1.09 relative to positive control antibody.

B4: No. 276 scFv-Fc antibody fragment (scFv, V domains shown)
VH: B2 VH with E1Q, E6Q
VL: ELELTQPPSASGAPGQRVTISCSGSSSNIGGSDVGWYQHLPGMAPRLLIYKSNQRPSGVPDRFSASKSGTSASLAISGLQSEDEGDYYCATWDDRLNWVFGGGTKVTVL
With B4, the Binding ability in experiment [1] is 1 relative to positive control antibody.
